According to patent US20200299373A1:

Columns and labels:
[1] = target: recombinant human FAM19A5 protein (His-tagged) (human) (UniProt Q7Z5A7); assay: ELISA on N'-Term His FAM19A5, fit of the titration; R2 printed 0.9746
[2] = target: recombinant human FAM19A5 protein (His-tagged) (human) (UniProt Q7Z5A7); assay: ELISA on N'-Term His FAM19A5, fit of the titration (OD 492 nm); R2 printed 0.9746
[3] = target: recombinant human FAM19A5 protein (His-tagged) (human) (UniProt Q7Z5A7); assay: two-site sandwich ELISA; capture antibody 3-2; biotinylated detection antibody P2-A03; antigen in ng/mL
[4] = target: recombinant human FAM19A5 protein (His-tagged) (human) (UniProt Q7Z5A7); assay: two-site sandwich ELISA; capture antibody 1-65; biotinylated detection antibody P2-A03; antigen in ng/mL
[5] = target: recombinant human FAM19A5 protein (His-tagged) (human) (UniProt Q7Z5A7); assay: two-site sandwich ELISA; capture antibody 13B4; biotinylated detection antibody P2-A03; antigen in ng/mL
[6] = target: recombinant human FAM19A5 protein (His-tagged) (human) (UniProt Q7Z5A7); assay: two-site sandwich ELISA; capture antibody 2-13; biotinylated detection antibody P2-A03; antigen in ng/mL
[7] = target: recombinant human FAM19A5 protein (His-tagged) (human) (UniProt Q7Z5A7); assay: two-site sandwich ELISA; capture antibody P2-F11; biotinylated detection antibody P2-A03; antigen in ng/mL
[8] = target: recombinant human FAM19A5 protein (His-tagged) (human) (UniProt Q7Z5A7); assay: two-site sandwich ELISA; capture antibody 3-2; S/N = O.D. at 10 ng/mL antigen / O.D. at 0 ng/mL; O.D. in column 0 printed 0.16
[9] = target: recombinant human FAM19A5 protein (His-tagged) (human) (UniProt Q7Z5A7); assay: two-site sandwich ELISA; capture antibody 1-65; S/N = O.D. at 10 ng/mL antigen / O.D. at 0 ng/mL; O.D. in column 0 printed 0.15
[10] = target: recombinant human FAM19A5 protein (His-tagged) (human) (UniProt Q7Z5A7); assay: two-site sandwich ELISA; capture antibody 13B4; S/N = O.D. at 10 ng/mL antigen / O.D. at 0 ng/mL; O.D. in column 0 printed 0.22
[11] = target: recombinant human FAM19A5 protein (His-tagged) (human) (UniProt Q7Z5A7); assay: two-site sandwich ELISA; capture antibody 2-13; S/N = O.D. at 10 ng/mL antigen / O.D. at 0 ng/mL; O.D. in column 0 printed 0.22
[12] = target: recombinant human FAM19A5 protein (His-tagged) (human) (UniProt Q7Z5A7); assay: two-site sandwich ELISA; capture antibody P2-F11; S/N = O.D. at 10 ng/mL antigen / O.D. at 0 ng/mL; O.D. in column 0 printed 0.14

B1: anti-FAM19A5 antibody P2-A03 (antibody, V domains shown)
VH: QSVEESGGRLVTPGTPLTLTCTVSGFSLNNYDMSWVRQAPGKGLEYIGFMDTDGSAYYATWAKGRFTISRTSTTVDLKMTSPTTEDTATYFCARRGSSYYGGIDIWGPGTPVTVSL
VL: ELDLTQTPASVSEPVGGTVTIKCQASQSIGGNLAWYQQKPGQPPKLLIYRASTLASGVPSRFKGSGSGTDFTLTISDLECADAATYYCQSPAYDPAAYVGNAFGGGTELEILR
modifications: Biotinylated when used as detection antibody in FIG. 6B.
Kd [1]: 0.61 nM | Bmax [2]: 3.37 | O.D., antigen 100 [3]: 1.91 | O.D., antigen column 10 [3]: 1.66 | O.D., antigen 100 [4]: 0.16 | O.D., antigen column 10 [4]: 0.15 | O.D., antigen 100 [5]: 0.27 | O.D., antigen column 10 [5]: 0.22 | O.D., antigen 100 [6]: 1.88 | O.D., antigen column 10 [6]: 1.72 | O.D., antigen 100 [7]: 0.15 | O.D., antigen column 10 [7]: 0.15 | S/N [8]: 10 | S/N [9]: 1 | S/N [10]: 1 | S/N [11]: 7.8 | S/N [12]: 1.1
